According to paper PMC12021427:

Molecular target: PS2 S-layer protein of Corynebacterium glutamicum 541 (ATCC-13058) (Corynebacterium glutamicum 541 (ATCC-13058))
Test: cryo-EM structure; single particle cryo-EM of S-layer sheets purified from cells with SDS; 50 mM HEPES/NaOH pH 7.5, 150 mM NaCl, 1 mM MgCl2, 2 mM CaCl2; C6 symmetry; 3.1 Å; lattices still intact after 10 mM EDTA or 10 mM EGTA for 2 h

stoichiometry N: 6
Substance: PS2 S-layer protein of Corynebacterium glutamicum 541 (ATCC-13058) (natural protein)
